Measurements reported in the DeepSol protein solubility set.

Experiment: soluble on expression in E. coli; label from the status in PepcDB or PDB records

Sequence | soluble on expression in E. coli
MGSDKIHHHHHHMDLDRLQTFLKVVQYGSFQQVAAREYRSQRTVSKQMTQLENELKVTLFDRGQNRIQLTPQGRLFWASAQDIVNNYTTALTELRQFNVPTDQILRVGYFSAFEQRLLLPALYDLKQQHSELQLVVRQGSNEHLAQQVADGSLDLALSINYGRPAVTPESQLTAVPIYHNQMVIGVSRLNPLSRLSQLPPSALATLPILYYSPESSTFLLESFLASAPFIQDYEQIRRVSSAEQMHLLVALNQALAFYPAGLVPTKHDEQVAYLPITDAAQQGYDIVALLKSNRSRPLIAKLVQRLKANAKSDE | not soluble
MGSDKIHHHHHHLAGERENWFVSIPPRRGSVLDVRGRKIVYDSPEYVAYLDVDFFKRQNGDIKALEKTLQNCGITKSAEEVMEYKFFKLTEGEDKVDVLKKIESELLPFVNIELVYTRKKIQDYATGILLGTVIDGTGKGGIEGFFDDQLQGKRKGFLELRYRGARLSPTLVNYSPPENGKDVWLSLDLDLQRRVYDIISKAVEGNSAEAGHVIVMESKTGRILSMVTTRNWNDLIGGYIEPGSTIKPLVYAIALETHSASPDFTVECEGSIKPVEQLPVIIRDIEKHGLVDFSAGIVKSCNVMSVKVGELITEKTGVEGFYEWLRKVGFGEKTGIEMEGEIAGVLREPKKWSLIDPAEISIGQGIGVTPVQLIASLNIFANDGYWVKPTILKDSPVKKRRVFSKETTDVIRQAMVRVVEEGTGKLAQVKGIAIAGKTGTAQKAVGGEYRNLYHSLFVGFFPAEDPKYTILVHLDSPSGAFYGGEVAAPVFREIVEILTEKEDGRIRIVKGLMPDLRGLPVRDALLVLESLGVKDVEIKGKGWKVSEQTPPPNHPLEGPVILFLSDQK | not soluble
MGSDKIHHHHHHMARPRKTIVSLDDTPYYHCCSRVVRKAFLCGIDSATGENFEHRRAWVEGRMFELATIFAMDICAYAVMSNHLHIVLRVDAEQAKQWTDKQVLIQWHKGFKGTLLTQRFVKDEVLDEFELKTVIDSVAVYRERLTSISWFIRALCEPIARMANKEDGCTGHFWEGRFKSQALLDEAAVLACMAYVDLNPVRAKMAATPETSDYTGIQRRINAALKGEQPNELLPFLGNERDNMPKGLMFSAKDYLLLVEDTGRIIRDDKRGAISRSSQYILDRLNIPTENWLKITKDFGHLFKGAVGSLQALSQYCEHLERKRRQSAANCQRWLCG | not soluble
MSLENICDMNNKVKVAVLDTGIDKEHDYLKDNLVGGIAFECMHDYIFISDKFDDEDGHGTACASIIKKEYEDVELFVIKILRKDGITNIKVLEEALRYLLDTNIRLINLSLSVIGVESVKGLFEVCYELFRKGKIIVCSLANDFDLSYPAMFNNVIGVRGFTLDGDDSFWYNKKYDVQCVMDSNSYISCDINNSYRLPPKCNSYLSAKLTGKIAKILSEKPGITISDLNDKLESLATRNHWDSCDFDECSRIVNFKLDLYDKENALFEGHHHHHH | soluble
MADKIKVSLLGSTGMVGQKMVKMLAKHPYLELVKVSASPSKIGKKYKDAVKWIEQGDIPEEVQDLPIVSTNYEDHKDVDVVLSALPNELAESIELELVKNGKIVVSNASPFRMDPDVPLINPEINWEHLELLKFQKERKGWKGILVKNPNCTAAIMSMPIKPLIEIATKSKIIITTLQAVSGAGYNGISFMAIEGNIIPYIKGEEDKIAKELTKLNGKLENNQIIPANLDSTVTSIRVPTRVGHMGVINIVTNERINIEEIKKTLKNFKSLPQQKNLPTAPKQPIIVRDEEDRPQPIIDVNAESGMAVTVGRIRHENNVLRLVVLGDNLVRGAAGITILTVEVMKELGYI | soluble
MGSDKIHHHHHHMLDLINVSYDTQIPNNVGLSQDKKVLKALEKWHPGYINWWNDLIPQNFQESLVYLRTAVSVDPKGWAKFDYVKMPEYRWGVLLAPQVENRTIPCGEHYGQPAWQEVPGEYRNLLKRLIVIQGDTEPASVEQQRLLALTAPSLYDMRNLFQVNVEEGRHLWAMVYLLHKYFGRDGREEADDLLRRQSGSEEAPRMLGAFNEETPDWLSFFMFTYFTDRDGKMQLESLAQSGFDPLSRTCRFMLTEEAHHMFVGETGVGRTIERTCQVMKENGIDDPYDTGRIRDLGVIDLPLIQKKLNLHYTLSLDLFGQEVSTNAANAFNAGIKGRYMENRLTDDHQLQQDTYTVWDFEDGKAVQKQVAALTAINMRLRDDYTKDAAGGVGRWNKIIEKHGVDFQLSLPHEAFHRKIGVFADKHFDPSGQPVSGAEYDAGLPKWLPTHADGDFIQSLMKPCYEPGQYARWIAPPKVGIDNRPGDFEYVKLHMA | not soluble
MTPPIAADYTAQAVSTDTIGYLHSTESGAGVDGPGMRFVFFVSGCQFRCLYCHNPDTWKLHNGRQVSVEQALSEVAPYARFLKFAGGVTISGGEPLMQHEFVGELFHEIKQRFGLHTALDTQGFLHERVSDAWFDDVDLVMLDIKHSDPEKYQALTGQPLQPTLDFALRLKRLRKKMWIRYVLVPGLTDGDADIEKLADFAASLGDVVERVEVLPFHQLGKDKWAQLGMEYQLNDTPIPTAEQAAHARALFASRGLKVTLEHHHHHH | soluble
MSFVVIIPARFSSTRLPGKPLVDINGKPMIVHVLERARESGAERIIVATDHEDVARAVEAAGGEVCMTRADHQSGTERLAEVVEKCGFSDDTVIVNVQGDEPMIPAVIIRQVAENLAQRQVGMATLAVPIHSAEEAFNPNAVKVVLDAEGYALYFSRATIPWDRDRFAKSLETVGDTCLRHLGIYGYRAGFIRRYVSWQPSPLEHIEMLEQLRVLWYGEKIHVAVAKAVPGTGVDTADDLERVRAEMR | not soluble
MGSSHHHHHHSSGLVPRGSHMAEQVLPQALYLSNMRKAVKIRERTPEDIFKPTNGIIHHFKTMHRYTLEMFRTCQFCPQFREIIHKALIDRNIQATLESQKKLNWCREVRKLVALKTNGDGNCLMHATSQYMWGVQDTDLVLRKALFSTLKETDTRNFKFRWQLESLKSQEFVETGLCYDTRNWNDEWDNLIKMASTDTPMARSGLQYNSLEEIHIFVLCNILRRPIIVISDKMLRSLESGSNFAPLKVGGIYLPLHWPAQECYRYPIVLGYDSHHFVPLVTLKDSGPEIRAVPLVNRDRGRFEDLKVHFLTDPENEMKEKLLKEYLMVIEIPVQGWDHGTTHLINAAKLDEANLPKEINLVDDYFELVQHEYKKWQENSEQGRREGHAQ | soluble
SAEAEGLADWMSKLNETFTTVPLCYIAIPGSHDAMAYSLDMDSPLLEPDSLITMDLICCGCCRSIVKNWSITQDKTISEQLDAGMRYFDLRVAGKPGSSDFFFYHGLYTTITVKEAMEEVDTWLGKHSKEVVILAFSHFKEMSTEQHTKLMTFLKDHFKAKLCPDDGMPSLKDCWDKAYQVILSYDDRNRKQDRVLWPGIKYWWANNSDPNEAILFLDNKKQSGRPKGFFVAGLNLTFYGCSIFSNLTASLKEKTVTAYPLLLDWVKKQRPGSDTQSINIIAGDFFDVNSFAQDIIQLNDAKTN | soluble
MKVSLAGQTVDVKKILNEIPKRTVTAALLEGGEIVAVEEADDEHAERKLVRRHDVEGKVVFVTARPCLYCARELAEAGVAGVVYLGRGRGLGPYYLARSGVEVVEVHPDEPLGYDPVDRLDVLLTFGGNPYLTEEDVAARVYCLLTGRGFDADIAPAPENLSGRVEIMVTRGDPDEAVELLKEELPVFRIRRFLISGEFDRDELRERILEDIEPRILDPFAVRARIARAGAFSSSREAEVFIGDVLTSVGREVNLNDPRTVVTVDVLGPRVSVGVEKR | soluble
MFADRLFNAMERNEPAPGMVLVAAPSMESEDFARSVILIIEHSEYATFGVNLASRSDVAVFNVIPEWVPCVTKPQALYIGGPLNQQSVVGVGVTAQGVDAARVDNLTRLANRLVMVNLGADPEEIKPLVSGMRLFAGHAEWAPGQLAQEIENGDWFVAPALPSDVTAPGSVDVWGDVMRRQPMPLPLYSTFPVNVVGENLEHHHHHH | soluble
MTATASDDEAVTALALSAAKGNGRALEAFIKATQQDVWRFVAYLSDVGSADDLTQETFLRAIGAIPRFSARSSARTWLLAIARHVVADHIRHVRSRPRTTRGARPEHLIDGD | soluble
MGSDKIHHHHHHMRSMTDVRRYWISLLRKICEMPLELCASDRLKKSMPVEGKKSEERRKFTHLELLGRIFCGISPFLELNRESPSTDPEERKIATRLSEFAVKSLDVATNPNCKDYMNFKEGRQPLVDAAFLVEAILRAPKVLWEDLDVSTKKRLIRELKATRKIEPYFSNWLLFSAMIETFFFFAGEEWDSTKVDLILKNVESWYKGDGAYGDGPFFRWDYYNSFVIYPMTIDVLRIISEEKTEWKELYVKVLRRAQRYAVVLERMISPEGTFPIIGRSITYRTAVFHLLSQLSLLHLLPASLSPAQVRCALTAVLRRIFENPSTFDENGWLKIGVIGSQPSLGEEYITTGSLYLCTTVFLPLGLPTSDPFWRDPCKKWTNKKVWEGEDVAPDRALED | not soluble
